The experiment addresses SIMx4 probe (fragment of Ring Finger Protein 4 comprising four SIMs) (Rattus norvegicus) (UniProt O88846). Nature of the experiment: pull-down; lysate of E. coli expressing HA-TbSUMO chains or monomer incubated with His-tagged SIMx4 or mutSIMx4 probe, 50 mM Tris HCl pH 7.6, 150 mM NaCl, 1% NP40, 0.5% deoxycholate, 1.5 h at 4°C; captured on Ni^+2-resin, washed with 250 mM NaCl, eluted with imidazole; Western blot anti-HA, three replicates.
Chain of UniProt O88846 (O88846 32-132): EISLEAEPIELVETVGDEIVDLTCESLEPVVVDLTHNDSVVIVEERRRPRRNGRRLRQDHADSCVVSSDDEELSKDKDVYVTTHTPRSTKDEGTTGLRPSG

For the substance “HA-TbSUMO chains (poly-SUMO chains of Trypanosoma brucei SUMO made by in bacteria SUMOylation)”, the fold pulled down against the mutSIMx4 probe or beads alone was over 3 fold.

Source of the values: PMC5825156.
